# B1: TPR t1 (parent)
# chain: GACCAAUCUGCCCUCAGAGCUCGAGAACAUCUUCGGAUGCAGAGGAGGCAGGCUUCGGUGGCGCGAUAGCGCCAACGUCCUCAACCUCCAAUGCAUCCCACCACAUGAUGAUGCCUGAAGAGCCUUGGUUUUUUG
# Variants of: B1
# Assay: polymerase ribozyme fitness, log enrichment relative to wild type (log ratio); higher = more active; in vitro selection for triplet polymerase activity
# How it was run: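 To select mutant libraries of each subunit of a heterodimeric triplet polymerase ribozyme, built by PCR and transcribed, each was annealed with a biotinylated primer, partner subunit and triplets, then incubated frozen at −7 °C. Extended constructs were gel-excised, captured on streptavidin beads and amplified by RT-PCR, in one round carried out in triplicate. Illumina sequencing of input and output libraries kept genotypes with ≥10 input reads and ≥1 read per output. Fitness is the base-2 logarithm of genotype enrichment relative to wild-type enrichment, from inverse-variance-weighted replicate averages.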
row,Variant,polymerase ribozyme fitness (log ratio)
1,A90C C97U G113A,-2.12
2,C4G U9G G61U G120C,0.941
3,C40U C56A A74C U130C,-1.15
4,A2G G61A,0.0396
5,U21C G113C,-1.14
6,A2C U7A G10U C98U,-4.07
7,G42U A74G C85A,-1.78
8,A6U C115U,-1.06
9,C12U C99U,-2.6
10,C12U C15U U38C A43C C123A,-1.45
11,A2C U14G U54G U96G A100U G117A U126A U129G,-5.8
12,C12G C62U A75C A108G,-2.34
13,C56A G93C,-1.88
14,G63U G77C C86G,-4.32
15,A37C G48C C53U U54A G60C C88A G93A C115U A121G,-6.81
16,C73A G107C,-4.16
17,C4A C73G,-2.98
18,G17A G69A C102U C114G U131G,-6.68
19,C40A C70A,-2.89
20,C13A G93C C123G,-0.906
21,A43C G47U G69U,-1.43
22,G39C U54A,-0.125
23,G39A G42A,-2.67
24,C40U C62U G135U,-1.68

row,Variant,polymerase ribozyme fitness (log ratio)
1,U9G A18C C56G G120A U130A,-1.19
2,C11A G60C A95C,-1.9
3,C12U C86U A103U A111U,-4.99
4,C4G C12U G60U C89G A111U,-5.57
5,G120C G135A,0.738
6,A5U A6C G63U,-1.11
7,G17C A46G U55C,-5.15
8,C79G G93U C115G,-4.32
9,C11G G52A C99U U106G,-4.99
10,G10A A95U G122A,0.0165
11,C8G C22G,-3.9
12,G47C C102U U112C,-1.55
13,C8G A24G C72G C97G C115G,-4.32
14,G47C A50C C72U C85G C88G C102U C123U,-7.42
15,U32C G69C,-2.01
16,C12U G48A G51U C56A,-2.84
17,G47C G48A C72U A91C C97U,-3.42
18,C53G G57C G63C,-0.44
19,U55A A83G,-0.95
20,G52A C70U,-0.605
21,G17A C80A,-5.66
22,C8U C40U C104A A119G,-1.19
23,G10C C20U G48C C114A C123U,-3.33
24,G52C G60U,-1.44

row,Variant,polymerase ribozyme fitness (log ratio)
1,A43G C72A C102U C114G,-4.55
2,C40U A50C C76G G77C C80U U131G,-4.6
3,U7G C22G G117U U130C,-2.69
4,A43G U54G C89G C94G,-3.3
5,C22U A121U,-2.45
6,A6G A18U,-1.31
7,C12A A74G,-0.0689
8,U9A G110U C124G,-0.636
9,C13G C62U,-1.43
10,C8G C76U,-0.187
11,A24G A41C,-2.27
12,U30C G61A C79G,-4.69
13,C72G U92G,-3.48
14,A2G C56A C73U A84U G120U,-1.68
15,C12U G45A G48A,-0.563
16,C12U G25U,-6.45
17,C15U G60U,-1.08
18,G36C G69A U112G G117A,-6.31
19,G47A G110A,-1.67
20,C15U C49A C72A U129C U134A G135C,-1.14
21,A24U C94U A103U G110C G120C U131A,-5.54
22,U7A C89U,-0.565
23,G48C C56U C85U U126G,-2.57
24,A46U G60C,-0.894

row,Variant,polymerase ribozyme fitness (log ratio)
1,U92C G117A,-2.67
2,A41U U109C C114U G120U,-4.6
3,G61U G113C U130G G135U,-3.21
4,A41U G77U C88G A111U,-6.76
5,G120A G127C,-0.483
6,C15U C73U A74C,-1.46
7,C3U A5G C34U G61C C62G C94U U109A C115U,-6.29
8,G45A G60A G110C,-4.86
9,C3U U7C A18C G52A C72U C94A,-4.4
10,G42U C72U G93U A118G,-4.06
11,G44C G63A,0.0487
12,G58A C73A A84G A103G C124G,-7.11
13,C12G A26G C98U,-3.76
14,A6U G61U,-0.0436
15,C4G C20U G48C G63A C123G,-2.25
16,G57C,-0.176
17,G42A C85G C86G U129C,-4.79
18,G44U G45U G60C C101U A121G U131C,-0.695
19,A66C G113C,-3.98
20,A84G G122A,-1.44
21,C15G A43U C49U A74G,-4.91
22,A6G G63U C73G C102A G110U C115G,-6.75
23,C8U A26U A83C G127C U133A,-5.14
24,U30A G110U,-4.94

row,Variant,polymerase ribozyme fitness (log ratio)
1,G36C G47A C56A G71A U78G C115U A118G,-6.68
2,G57A C114U,-3.27
3,C13U G48A C98U G122A G128C G135U,-1.66
4,C72U G120U,-0.256
5,G51U C94A U133G,-3.88
6,G71C A75G,-0.0431
7,C11G C73A C82U,-0.161
8,C12G C28U G36U G60A A83C C97U,-3.31
9,G47C A50U U81C C114U,-4.15
10,U38A C101U G117C,-4.18
11,C22G U78A U87A C88A C102A,-5.54
12,C8U C12U C101G A121C,-0.571
13,G10C C13A C64U C82U A83C,-1.29
14,G36U U116A,-4.2
15,A118C,-2.45
16,A18G G19C C53U A111U,-4.72
17,C49U C82G,-0.241
18,U9G G57A C79A,-1.03
19,G39U G52A G63U,-2.37
20,U78C A95G,-1.08
21,U109A U132C,-5.12
22,C12U C20U U96C,-0.583
23,C85G A111C,-3.12
24,C13G C53G U59C U133G,-1.68

row,Variant,polymerase ribozyme fitness (log ratio)
1,G93A U96A,-1.69
2,C13A C22A,-5.41
3,C13A C22U,-4.99
4,U9G C34G,-4.16
5,A6C U7G C22G G58U A95G C104A G120C,-3.33
6,U7A C12U C62A G113C,-3.19
7,A2U C22U C86U G110U,-6.04
8,U7C C20U C62A A83C A119G,-1.83
9,A46G C49A,0.0417
10,A27G G39U C73U G110C,-3.91
11,A27U G47A U125G,-2.83
12,C8A U30C G69U A118U G120A U129G,-1.47
13,U32A A74C C114G,-4.4
14,G71A A74G C88A C97A G117C,-5.77
15,C56G C88U,-0.184
16,U14A C34G G71C A91G C124A,-6.51
17,C101U A108U U109G,-6.14
18,G47U U54C C70U U96C U116C U129C,-4.8
19,G52C C123G,0.381
20,G19A A29C U109A G120C,-5.43
21,G52C C86A C114U G120U,-5.89
22,C62U C86A,-0.731
23,C20A U38A G48A C104A A121U,-6.26
24,C11G C115U,-1.01

row,Variant,polymerase ribozyme fitness (log ratio)
1,U81G C88A,-2.78
2,C11G G113A,-0.119
3,C49U U106A U126A,-2.78
4,C31G G69U A111C U112A G117A,-6.69
5,A29G U130G,-1.15
6,A6U C11G U112A U126A,1.81
7,C56G C64U C80A,-2.96
8,G44A U78C,-1.33
9,G10U A27U C76G U109G,-5.77
10,C53U A121U,0.893
11,C13G A37U U38C,-2.77
12,G10A G58C A111G,0.287
13,G51U C97U U132A,-2.51
14,G60U G61U C104A,-5.16
15,G60A C64U,-2.43
16,C31G C56G A68U U81A C99G G110C,-7.68
17,U112A U130G,-0.266
18,G61C G110U,-3.71
19,U54A G57C A90G C114U U132A,-2.18
20,G48U U81G A91G G117U A119U,-7.47
21,U54A C56G G61A,-0.683
22,C22G G35U A121C U132C,-4.9
23,A43C C115U,-3.33

# Source: the RNAGym collection of RNA variant scans (doi:10.1073/pnas.2313332121)
